Laboratory results taken from article PMC10875832.

Assays:
[1] = biological target: FAdV-4 fiber1 knob (fowl adenovirus 4 (FAdV-4)); experiment: crystal structure; crystal in 20% (w/v) PEG 4000 and 0.15 M potassium sulfate; one chain in the asymmetric unit, trimer by crystal symmetry
[2] = biological target: EDSV fibre knob (egg drop syndrome virus (EDSV)); experiment: SPR; Biacore X100, CM5 sensor chip; fibre knobs immobilised, soluble CAR domains in solution (said for D12); 1:1 binding model
[3] = biological target: FAdV-4 fiber1 knob (fowl adenovirus 4 (FAdV-4)); experiment: as above
[4] = biological target: CELO fiber1 knob (chicken embryo lethal orphan (CELO) virus); experiment: as above

Substance	stoichiometry N [1]	Kd [2] [µM]	Kd [3] [µM]	Kd [4] [µM]	fold weaker affinity than the D1 domain for the same knob [4] [fold]
FAdV-4 fiber1 knob (domain or fragment)	3	–	–	–	–
soluble CAR D12 (domain or fragment)	–	2.67	0.868	–	–
soluble CAR D1 domain (domain or fragment)	–	2.76	7.42	–	–
soluble CAR D2 domain (domain or fragment)	–	4.77	6.29	11200	1000
